Consider 1 molecule from patent publication US7838495B2, “Compositions and methods of use of EPB1, and ErbB3 binding protein” (University of Maryland, Baltimore, priority 2007, dated 2010).

The test system of the assay is C81 cells. As to the kind of experiment: RT-PCR, Western blot and ELISA in C81 EBP1 transfectants. Format: cell-based, human. As for the experimental part:
FIG. 5A-D. Expression of genes associated with androgen independence is decreased in C81 EBP1 transfectants. A. Lysates of logarithmically growing clones of C81 EBP1 transfectants (E1,2) or vector controls (V 1,2) were resolved by SDS-PAGE and immunoblotted for AR, BCL-2, BAD, FLAG, EBP1 and ACTIN as indicated. Representative of 3 experiments. B. Secreted PSA as measured by ELISA. EBP1 and vector control cells were plated at 1×10^6 cells/100 mm dish in complete media. Forty-eight hours later, conditioned media were collected and frozen. PSA activity was assessed by ELISA. Levels of PSA were adjusted to total cell number. Data is representative of 2 experiments. C. Validation of mRNA levels in EBP1 transfectants. Quantitative RT PCR was performed for the KALLIKREIN-2, AGR2 and TSPY genes in EBP1 and vector transfectants. The relative levels of all test mRNAs were normalized to β-ACTIN. Results are representative of 3 experiments using different sets of cells. D. Expression of AGR2 protein in vector and EBP1 C81 transfectants. Lysates of vector control (V) or EBP1 (E) transfected cells grown in complete media were resolved by SDS-PAGE and analyzed by Western blotting with antibody to AGR2.
Microarray Analysis and Bioinformatics. RNA was prepared using the Trizol Reagent as previously described (8). Microarray processing and data analysis was performed at Genome Explorations (Nashville, Tenn.). U133A oligonucleotide arrays (Affymetrix) containing ˜33,000 full length annotated genes together with additional probe sets designed to represent EST sequences were used for the analysis. Only genes with a minimum expression level of 500 were included in this analysis. […] Oncomine analyses were performed by using Oncomine 3.0 (www.oncomine.org). Real Time Quantitative Reverse-Transcription PCR. Both cell culture samples and a commercial panel of cDNAs from normal prostate and prostate tumors (TissueScan, Origene, Rockville, Md.) were examined. The method of Nakanishi et al. (15) was used as previously described. Real-time quantitative RT-PCR was performed on the LightCycler® (Roche) platform. The following forward and reverse primers were selected using Primer Express software and synthesized by the Core Laboratory of University of Maryland School of Medicine: Ebp1, sense: 5′-GCA CGC CAA TAG AAG G-3′ (SEQ ID NO: 16) and antisense: 5′-GTA AAC GGC ATG GCA TC-3′ (SEQ ID NO: 17) kallikrein-2 sense: 5′-CAT CCA GTC TCG GAT TG-3′ (SEQ ID NO: 18) and antisense: 5′-CTC ATA TTG TAG AGC GGG T-3′ (SEQ ID NO: 19), TSPY, sense: 5′-CAGGGCTTCTCATTCCACTC-3′ (SEQ ID NO: 20) and antisense: 5′-CCATCATATTCAACTCAACAA CTGG-3′ (16; SEQ ID NO: 21), AGR2, sense: 5′-ATTGGCAGAGCAGTTTCTCC-3′ (SEQ ID NO: 22) and antisense, 5′-GAGCTGTATCTGCAGGTTCGT (17; SEQ ID NO: 23) 13-Actin, sense: 5′-GCTATCCAGGCTGTGCTATC-3′ (SEQ ID NO: 24) and antisense 5′-TGT CAC GCA CGA TTT CC-3′ (SEQ ID NO: 25). A SYBR®Green PCR Kit was used as per the manufacturer's instructions (Applied Biosystems, Foster City, Calif.) and the analyses were performed in duplicate or triplicate.
Measurement of PSA levels. Serum PSA levels were determined using a PSA ELISA kit from DSL, Inc (Webster, Tex.) as previously described (9).
Western Blot Analysis. Western blot analysis was performed as previously described (19). The Ebp1 antibody was from Upstate (Lake Placid, N.Y.), the polyclonal antibody to actin from Sigma, the AKT and phospho AKT antibodies from Cell Signaling (Beverly, Mass.) and the AGR2 antibody was previously described (20) Cell Growth Assays Cell growth measurement in complete media was performed as described using a hemocytometer (21). For soft agar growth assays, increasing concentrations of cells (as indicated) were plated in 35 mm Petri dishes in 0.3% agar in complete media and colonies were counted after 10 days of incubation (21). […]
(In western blotting, separated proteins are transferred to a membrane and probed.)

The mark [1] stands for this setting: C81 EBP1 transfectants vs vector controls, real time RT-PCR.
[2] abbreviates: C81 clones transfected with FLAG-tagged EBP1, Western blot.

B1: EBP1: ErbB3 binding protein (SEQ ID NO: 2), AR corepressor, here ectopically expressed in cancer cells by stable transfection of an expression plasmid (protein, listed as Homo sapiens)
chain: MSGEDEQQEQTIAEDLVVTKYKMGGDIANRVLRSLVEASSSGVSVLSLCEKGDAMIMEETGKIFKKEKEMKKGIAFPTSISVNNCVCHFSPLKSDQDYILKEGDLVKIDLGVHVDGFIANVAHTFVVDVAQGTQVTGRKADVIKAAHLCAEAALRLVKPGNQNTQVTEAWNKVAHSFNCTPIEGMLSHQLKQHVIDGEKTIIQNPTDQQKKDHEKAEFEVHEVYAVDVLVSSGEGKAKDAGQRTTIYKRDPSKQYGLKMKTSRAFFSEVERRFDAMPFTLRAFEDEKKARMGVVECAKHELLQPFNVLYEKEGEFVAQFKFTVLLMPNGPMRITSGPFEPDLYKSEMEVQDAELKALLQSSASRKTQKKKKKKASKTAENATSGETLEENEAGD
modifications: FLAG tag
B1: the AGR2 protein result (C81 EBP1 transfectants in complete media, Western blot) was “decreased”. Moreover, the “decrease of secreted PSA protein levels” value (C81 EBP1 transfectants vs vector controls, ELISA) is recorded as 60%. For the same molecule, under setting [1], the “AGR2 mRNA downregulation” value was “over 90%” and the “Kallikrein-2 mRNA downregulation” value is “over 80%”. For the setting “C81 EBP1 transfectants, real time RT-PCR”, the “TSPY mRNA downregulation” value is recorded as “over 90%”. For the same molecule, under setting [2], the AR protein level entry is listed as “markedly reduced”, the BAD protein level entry is listed as “remained the same as the vector controls” and the Bcl2 protein level result is “markedly reduced”.
